Results reported in patent publication US12679878B2, “CRF2 receptor agonists and their use in therapy” (SANOFI, priority 2020, dated 2026).
Starred links: 1 amine or outer side, 2 acyl side, 3 side chain; linkers in the order of their positions; H or OH if unused. Non-standard residues stand in square brackets, D forms with d. Groups on a side chain read outwards from the residue. No end group written: not given here. *: point of attachment. C18 diacid = O=C(O)CCCCCCCCCCCCCCCCC(=O)*; γGlu = O=C(O)[C@H](CCC(=O)[*:2])N[*:1]; AEEA = NCCOCCOCC(=O)O; Aib = CC(C)(N)C(=O)O

T1: CRF1R receptor (anti-target) (UniProt P34998 24-415, limits assumed)
T1 sequence (looked up): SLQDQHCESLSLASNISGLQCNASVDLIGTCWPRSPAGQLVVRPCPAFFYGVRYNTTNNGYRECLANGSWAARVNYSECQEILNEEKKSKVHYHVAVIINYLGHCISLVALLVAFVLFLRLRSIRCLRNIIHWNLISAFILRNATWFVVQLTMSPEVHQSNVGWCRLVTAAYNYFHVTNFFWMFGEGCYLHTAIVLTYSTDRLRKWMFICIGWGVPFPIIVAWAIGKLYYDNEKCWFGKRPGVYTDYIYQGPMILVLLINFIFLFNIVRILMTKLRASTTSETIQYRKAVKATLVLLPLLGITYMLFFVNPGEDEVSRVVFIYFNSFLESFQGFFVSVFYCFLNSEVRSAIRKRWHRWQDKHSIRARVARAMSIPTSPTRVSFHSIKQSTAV

B1: peptide of SEQ ID NO: 119 (peptide)
peptide: IVLSLDVPIKLK([AEEA-AEEA-γGlu-C18 diacid])QILLKQERQKK[Aib]RQKAEKNKQILAQV-NH2
modifications: N-terminus assumed
SMILES: CC[C@H](C)[C@H](N)C(=O)N[C@H](C(=O)N[C@@H](CC(C)C)C(=O)N[C@@H](CO)C(=O)N[C@@H](CC(C)C)C(=O)N[C@@H](CC(=O)O)C(=O)N[C@H](C(=O)N1CCC[C@H]1C(=O)N[C@H](C(=O)N[C@@H](CCCCN)C(=O)N[C@@H](CC(C)C)C(=O)N[C@@H](CCCCNC(=O)COCCOCCNC(=O)COCCOCCNC(=O)CC[C@H](NC(=O)CCCCCCCCCCCCCCCCC(=O)O)C(=O)O)C(=O)N[C@@H](CCC(N)=O)C(=O)N[C@H](C(=O)N[C@@H](CC(C)C)C(=O)N[C@@H](CC(C)C)C(=O)N[C@@H](CCCCN)C(=O)N[C@@H](CCC(N)=O)C(=O)N[C@@H](CCC(=O)O)C(=O)N[C@@H](CCCNC(=N)N)C(=O)N[C@@H](CCC(N)=O)C(=O)N[C@@H](CCCCN)C(=O)N[C@@H](CCCCN)C(=O)NC(C)(C)C(=O)N[C@@H](CCCNC(=N)N)C(=O)N[C@@H](CCC(N)=O)C(=O)N[C@@H](CCCCN)C(=O)N[C@@H](C)C(=O)N[C@@H](CCC(=O)O)C(=O)N[C@@H](CCCCN)C(=O)N[C@@H](CC(N)=O)C(=O)N[C@@H](CCCCN)C(=O)N[C@@H](CCC(N)=O)C(=O)N[C@H](C(=O)N[C@@H](CC(C)C)C(=O)N[C@@H](C)C(=O)N[C@@H](CCC(N)=O)C(=O)N[C@H](C(N)=O)C(C)C)[C@@H](C)CC)[C@@H](C)CC)[C@@H](C)CC)C(C)C)C(C)C
B2: peptide of SEQ ID NO: 121 (peptide)
peptide: IVLSLDVPIKLK([AEEA-AEEA-γGlu-C18 diacid])QILLKQERQKKQREKAEKNKQILAQV-NH2
modifications: N-terminus assumed
SMILES: CC[C@H](C)[C@H](N)C(=O)N[C@H](C(=O)N[C@@H](CC(C)C)C(=O)N[C@@H](CO)C(=O)N[C@@H](CC(C)C)C(=O)N[C@@H](CC(=O)O)C(=O)N[C@H](C(=O)N1CCC[C@H]1C(=O)N[C@H](C(=O)N[C@@H](CCCCN)C(=O)N[C@@H](CC(C)C)C(=O)N[C@@H](CCCCNC(=O)COCCOCCNC(=O)COCCOCCNC(=O)CC[C@H](NC(=O)CCCCCCCCCCCCCCCCC(=O)O)C(=O)O)C(=O)N[C@@H](CCC(N)=O)C(=O)N[C@H](C(=O)N[C@@H](CC(C)C)C(=O)N[C@@H](CC(C)C)C(=O)N[C@@H](CCCCN)C(=O)N[C@@H](CCC(N)=O)C(=O)N[C@@H](CCC(=O)O)C(=O)N[C@@H](CCCNC(=N)N)C(=O)N[C@@H](CCC(N)=O)C(=O)N[C@@H](CCCCN)C(=O)N[C@@H](CCCCN)C(=O)N[C@@H](CCC(N)=O)C(=O)N[C@@H](CCCNC(=N)N)C(=O)N[C@@H](CCC(=O)O)C(=O)N[C@@H](CCCCN)C(=O)N[C@@H](C)C(=O)N[C@@H](CCC(=O)O)C(=O)N[C@@H](CCCCN)C(=O)N[C@@H](CC(N)=O)C(=O)N[C@@H](CCCCN)C(=O)N[C@@H](CCC(N)=O)C(=O)N[C@H](C(=O)N[C@@H](CC(C)C)C(=O)N[C@@H](C)C(=O)N[C@@H](CCC(N)=O)C(=O)N[C@H](C(N)=O)C(C)C)[C@@H](C)CC)[C@@H](C)CC)[C@@H](C)CC)C(C)C)C(C)C
B3: peptide of SEQ ID NO: 116 (peptide)
peptide: IVLSLDVPIKLK([AEEA-AEEA-γGlu-C18 diacid])QILLKQERQK[Aib]QREKAEKNKQILAQV-NH2
modifications: N-terminus assumed
SMILES: CC[C@H](C)[C@H](N)C(=O)N[C@H](C(=O)N[C@@H](CC(C)C)C(=O)N[C@@H](CO)C(=O)N[C@@H](CC(C)C)C(=O)N[C@@H](CC(=O)O)C(=O)N[C@H](C(=O)N1CCC[C@H]1C(=O)N[C@H](C(=O)N[C@@H](CCCCN)C(=O)N[C@@H](CC(C)C)C(=O)N[C@@H](CCCCNC(=O)COCCOCCNC(=O)COCCOCCNC(=O)CC[C@H](NC(=O)CCCCCCCCCCCCCCCCC(=O)O)C(=O)O)C(=O)N[C@@H](CCC(N)=O)C(=O)N[C@H](C(=O)N[C@@H](CC(C)C)C(=O)N[C@@H](CC(C)C)C(=O)N[C@@H](CCCCN)C(=O)N[C@@H](CCC(N)=O)C(=O)N[C@@H](CCC(=O)O)C(=O)N[C@@H](CCCNC(=N)N)C(=O)N[C@@H](CCC(N)=O)C(=O)N[C@@H](CCCCN)C(=O)NC(C)(C)C(=O)N[C@@H](CCC(N)=O)C(=O)N[C@@H](CCCNC(=N)N)C(=O)N[C@@H](CCC(=O)O)C(=O)N[C@@H](CCCCN)C(=O)N[C@@H](C)C(=O)N[C@@H](CCC(=O)O)C(=O)N[C@@H](CCCCN)C(=O)N[C@@H](CC(N)=O)C(=O)N[C@@H](CCCCN)C(=O)N[C@@H](CCC(N)=O)C(=O)N[C@H](C(=O)N[C@@H](CC(C)C)C(=O)N[C@@H](C)C(=O)N[C@@H](CCC(N)=O)C(=O)N[C@H](C(N)=O)C(C)C)[C@@H](C)CC)[C@@H](C)CC)[C@@H](C)CC)C(C)C)C(C)C
B4: peptide of SEQ ID NO: 117 (peptide)
peptide: IVLSLDVPIKLK([AEEA-AEEA-γGlu-C18 diacid])QILLKQERQK[Aib]QRQQAEKNKQILAQV-NH2
modifications: N-terminus assumed
SMILES: CC[C@H](C)[C@H](N)C(=O)N[C@H](C(=O)N[C@@H](CC(C)C)C(=O)N[C@@H](CO)C(=O)N[C@@H](CC(C)C)C(=O)N[C@@H](CC(=O)O)C(=O)N[C@H](C(=O)N1CCC[C@H]1C(=O)N[C@H](C(=O)N[C@@H](CCCCN)C(=O)N[C@@H](CC(C)C)C(=O)N[C@@H](CCCCNC(=O)COCCOCCNC(=O)COCCOCCNC(=O)CC[C@H](NC(=O)CCCCCCCCCCCCCCCCC(=O)O)C(=O)O)C(=O)N[C@@H](CCC(N)=O)C(=O)N[C@H](C(=O)N[C@@H](CC(C)C)C(=O)N[C@@H](CC(C)C)C(=O)N[C@@H](CCCCN)C(=O)N[C@@H](CCC(N)=O)C(=O)N[C@@H](CCC(=O)O)C(=O)N[C@@H](CCCNC(=N)N)C(=O)N[C@@H](CCC(N)=O)C(=O)N[C@@H](CCCCN)C(=O)NC(C)(C)C(=O)N[C@@H](CCC(N)=O)C(=O)N[C@@H](CCCNC(=N)N)C(=O)N[C@@H](CCC(N)=O)C(=O)N[C@@H](CCC(N)=O)C(=O)N[C@@H](C)C(=O)N[C@@H](CCC(=O)O)C(=O)N[C@@H](CCCCN)C(=O)N[C@@H](CC(N)=O)C(=O)N[C@@H](CCCCN)C(=O)N[C@@H](CCC(N)=O)C(=O)N[C@H](C(=O)N[C@@H](CC(C)C)C(=O)N[C@@H](C)C(=O)N[C@@H](CCC(N)=O)C(=O)N[C@H](C(N)=O)C(C)C)[C@@H](C)CC)[C@@H](C)CC)[C@@H](C)CC)C(C)C)C(C)C
B5: peptide of SEQ ID NO: 118 (peptide)
peptide: IVLSLD[dV]PIKLK([AEEA-AEEA-γGlu-C18 diacid])QILLKQERQK[Aib]QRQKAEKNKQILAQV-NH2
modifications: N-terminus assumed
SMILES: CC[C@H](C)[C@H](N)C(=O)N[C@H](C(=O)N[C@@H](CC(C)C)C(=O)N[C@@H](CO)C(=O)N[C@@H](CC(C)C)C(=O)N[C@@H](CC(=O)O)C(=O)N[C@@H](C(=O)N1CCC[C@H]1C(=O)N[C@H](C(=O)N[C@@H](CCCCN)C(=O)N[C@@H](CC(C)C)C(=O)N[C@@H](CCCCNC(=O)COCCOCCNC(=O)COCCOCCNC(=O)CC[C@H](NC(=O)CCCCCCCCCCCCCCCCC(=O)O)C(=O)O)C(=O)N[C@@H](CCC(N)=O)C(=O)N[C@H](C(=O)N[C@@H](CC(C)C)C(=O)N[C@@H](CC(C)C)C(=O)N[C@@H](CCCCN)C(=O)N[C@@H](CCC(N)=O)C(=O)N[C@@H](CCC(=O)O)C(=O)N[C@@H](CCCNC(=N)N)C(=O)N[C@@H](CCC(N)=O)C(=O)N[C@@H](CCCCN)C(=O)NC(C)(C)C(=O)N[C@@H](CCC(N)=O)C(=O)N[C@@H](CCCNC(=N)N)C(=O)N[C@@H](CCC(N)=O)C(=O)N[C@@H](CCCCN)C(=O)N[C@@H](C)C(=O)N[C@@H](CCC(=O)O)C(=O)N[C@@H](CCCCN)C(=O)N[C@@H](CC(N)=O)C(=O)N[C@@H](CCCCN)C(=O)N[C@@H](CCC(N)=O)C(=O)N[C@H](C(=O)N[C@@H](CC(C)C)C(=O)N[C@@H](C)C(=O)N[C@@H](CCC(N)=O)C(=O)N[C@H](C(N)=O)C(C)C)[C@@H](C)CC)[C@@H](C)CC)[C@@H](C)CC)C(C)C)C(C)C
B6: peptide of SEQ ID NO: 122 (peptide)
peptide: IVLSLDVPIKLK([AEEA-AEEA-γGlu-C18 diacid])QILLKQERQKKQRQQAEKNKQILAQV-NH2
modifications: N-terminus assumed
SMILES: CC[C@H](C)[C@H](N)C(=O)N[C@H](C(=O)N[C@@H](CC(C)C)C(=O)N[C@@H](CO)C(=O)N[C@@H](CC(C)C)C(=O)N[C@@H](CC(=O)O)C(=O)N[C@H](C(=O)N1CCC[C@H]1C(=O)N[C@H](C(=O)N[C@@H](CCCCN)C(=O)N[C@@H](CC(C)C)C(=O)N[C@@H](CCCCNC(=O)COCCOCCNC(=O)COCCOCCNC(=O)CC[C@H](NC(=O)CCCCCCCCCCCCCCCCC(=O)O)C(=O)O)C(=O)N[C@@H](CCC(N)=O)C(=O)N[C@H](C(=O)N[C@@H](CC(C)C)C(=O)N[C@@H](CC(C)C)C(=O)N[C@@H](CCCCN)C(=O)N[C@@H](CCC(N)=O)C(=O)N[C@@H](CCC(=O)O)C(=O)N[C@@H](CCCNC(=N)N)C(=O)N[C@@H](CCC(N)=O)C(=O)N[C@@H](CCCCN)C(=O)N[C@@H](CCCCN)C(=O)N[C@@H](CCC(N)=O)C(=O)N[C@@H](CCCNC(=N)N)C(=O)N[C@@H](CCC(N)=O)C(=O)N[C@@H](CCC(N)=O)C(=O)N[C@@H](C)C(=O)N[C@@H](CCC(=O)O)C(=O)N[C@@H](CCCCN)C(=O)N[C@@H](CC(N)=O)C(=O)N[C@@H](CCCCN)C(=O)N[C@@H](CCC(N)=O)C(=O)N[C@H](C(=O)N[C@@H](CC(C)C)C(=O)N[C@@H](C)C(=O)N[C@@H](CCC(N)=O)C(=O)N[C@H](C(N)=O)C(C)C)[C@@H](C)CC)[C@@H](C)CC)[C@@H](C)CC)C(C)C)C(C)C

What follows are binders tested against T1, CRF1R receptor (anti-target) (assay: cell-based or functional assay).

Q: How did the “EC50 [nM] 0% HSA (cAMP, HTRF)” value turn out when B1 was run?
A: The value was over 100 nM.

Q: And the “Emax (%) (100% = Sauvagine at 100 nM)” value?
A: The value was 0.4%.

Q: With B2 as the binder, how does the “EC50 [nM] 0% HSA (cAMP, HTRF)” value read?
A: The value was over 100 nM.

Q: What about the “Emax (%) (100% = Sauvagine at 100 nM)” value of the same binder?
A: The value was -1.1%.

Q: B3 was tested. Which “EC50 [nM] 0% HSA (cAMP, HTRF)” value did it give?
A: Its value is over 100 nM.

Q: And the “Emax (%) (100% = Sauvagine at 100 nM)” value?
A: Its value is 0.8%.

Q: With B4 as the binder, how does the “EC50 [nM] 0% HSA (cAMP, HTRF)” value read?
A: Its value is over 100 nM.

Q: And the “Emax (%) (100% = Sauvagine at 100 nM)” value?
A: Its value is -6%.

Q: Which results are given for B5?
A: EC50 [nM] 0% HSA (cAMP, HTRF): > 100 nM; Emax (%) (100% = Sauvagine at 100 nM): 1.5%

Q: B6 was tested. Which “EC50 [nM] 0% HSA (cAMP, HTRF)” value did it give?
A: The value was over 100 nM.

Q: What about the “Emax (%) (100% = Sauvagine at 100 nM)” value of the same binder?
A: The value was 6.9%.
